Measurements from US20070117966A1 (UNIVERSITY OF ROCHESTER, published 2007).
Where two headings read alike, the source gives them in different places. No end group written: not given here.

Tests used:
[1] = target: αvβ3 integrin on K562-αvβ3 cells (human, UniProt P06756 31-1048; P05106 27-788); assay: cell-based or functional assay
[2] = target: αIIbβ3 integrin on K562-αIIbβ3 cells (UniProt P08514 32-1039; P05106 27-788); assay: cell-based or functional assay
purified αvβ3 integrin [3] = target: T1, purified αvβ3 integrin (human, UniProt P06756 31-1048; P05106 27-788, limits assumed)
purified αvβ3 integrin [4] = target: T1, purified αvβ3 integrin; assay: competition ELISA on αvβ3 coated wells; competitor: biotinylated FNfn10-3JCLI4 at 800 pM; no inhibition at the highest concentration

T1 sequence (P06756 31-1048 limits assumed, form in doubt, chain 1 of 2): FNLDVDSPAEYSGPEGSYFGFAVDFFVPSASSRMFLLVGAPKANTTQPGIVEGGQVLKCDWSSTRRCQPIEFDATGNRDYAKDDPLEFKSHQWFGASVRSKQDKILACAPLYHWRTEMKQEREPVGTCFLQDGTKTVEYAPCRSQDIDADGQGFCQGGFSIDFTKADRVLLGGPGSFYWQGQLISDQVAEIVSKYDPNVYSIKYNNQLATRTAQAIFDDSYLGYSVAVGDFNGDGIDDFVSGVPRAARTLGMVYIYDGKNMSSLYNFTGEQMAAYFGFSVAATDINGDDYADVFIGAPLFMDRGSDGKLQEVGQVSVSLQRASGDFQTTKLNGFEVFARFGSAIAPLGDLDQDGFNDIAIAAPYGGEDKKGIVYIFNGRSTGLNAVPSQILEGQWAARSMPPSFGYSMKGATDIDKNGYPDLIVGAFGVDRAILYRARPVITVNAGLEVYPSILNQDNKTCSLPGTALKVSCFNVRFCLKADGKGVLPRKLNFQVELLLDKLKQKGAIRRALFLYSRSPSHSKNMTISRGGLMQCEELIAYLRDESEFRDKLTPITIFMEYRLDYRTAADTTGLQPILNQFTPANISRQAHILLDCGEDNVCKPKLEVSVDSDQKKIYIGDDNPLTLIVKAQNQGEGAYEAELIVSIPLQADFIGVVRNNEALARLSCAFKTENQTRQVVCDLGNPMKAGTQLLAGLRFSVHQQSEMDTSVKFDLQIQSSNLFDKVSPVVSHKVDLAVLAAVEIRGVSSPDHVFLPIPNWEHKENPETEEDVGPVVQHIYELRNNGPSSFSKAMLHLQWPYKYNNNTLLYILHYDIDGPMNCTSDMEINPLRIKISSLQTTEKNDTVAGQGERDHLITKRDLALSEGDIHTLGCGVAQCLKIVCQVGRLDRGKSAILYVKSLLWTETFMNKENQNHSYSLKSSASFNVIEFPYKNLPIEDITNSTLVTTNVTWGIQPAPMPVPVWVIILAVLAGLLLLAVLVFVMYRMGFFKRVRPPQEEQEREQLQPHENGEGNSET
T1 sequence (P05106 27-788 limits assumed, form in doubt, chain 2 of 2): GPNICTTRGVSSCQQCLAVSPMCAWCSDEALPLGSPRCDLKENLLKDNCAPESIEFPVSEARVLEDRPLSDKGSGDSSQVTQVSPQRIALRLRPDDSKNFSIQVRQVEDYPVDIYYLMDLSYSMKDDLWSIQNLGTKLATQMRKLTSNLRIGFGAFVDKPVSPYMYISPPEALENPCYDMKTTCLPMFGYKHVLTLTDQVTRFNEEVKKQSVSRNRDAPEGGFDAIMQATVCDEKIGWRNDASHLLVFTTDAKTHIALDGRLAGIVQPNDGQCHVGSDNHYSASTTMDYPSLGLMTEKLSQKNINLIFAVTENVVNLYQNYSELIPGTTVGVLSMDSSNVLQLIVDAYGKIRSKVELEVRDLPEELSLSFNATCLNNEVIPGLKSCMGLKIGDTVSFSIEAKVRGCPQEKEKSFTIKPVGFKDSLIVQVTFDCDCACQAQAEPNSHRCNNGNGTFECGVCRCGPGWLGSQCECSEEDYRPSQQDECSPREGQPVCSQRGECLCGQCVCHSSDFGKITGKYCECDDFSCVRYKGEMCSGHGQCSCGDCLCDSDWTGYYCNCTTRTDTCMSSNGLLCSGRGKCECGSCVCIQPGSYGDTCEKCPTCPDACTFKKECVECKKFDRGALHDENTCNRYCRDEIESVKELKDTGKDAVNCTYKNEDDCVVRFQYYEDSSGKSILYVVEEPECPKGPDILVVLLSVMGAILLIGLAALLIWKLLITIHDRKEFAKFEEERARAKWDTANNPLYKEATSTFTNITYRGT
Chain of αvβ3 integrin on K562-αvβ3 cells (P06756 31-1048, chain 1 of 2): as the sequence (P06756 31-1048 limits assumed, form in doubt, chain 1 of 2) above
Chain of αvβ3 integrin on K562-αvβ3 cells (P05106 27-788, chain 2 of 2): as the sequence (P05106 27-788 limits assumed, form in doubt, chain 2 of 2) above

QCESGPCCRNCKFLKEGTICKRARGDDMDDYCNGKTCDCPRNPHKGPAT (ligand, ends and bridges not checked; cysteine pairing not given here) [echistatin]
inhibition of adhesion of K562-αvβ3 cells to vitronectin, IC50 [1]: 5.9 nM
inhibition of adhesion of K562-αIIbβ3 cells to fibronectin, IC50 [2]: 10.2 nM
IC50 (purified αvβ3 integrin [3]): 0.93 nM

GRGDSPK [GRGDSPK peptide]
IC50 (purified αvβ3 integrin [4]): > 80 nM
